In the supplement of paper PMC11136658:

System: peptide library, one residue held at a place counted from the Y acceptor
Assay: relative phosphorylation of the sub-library (ratio to the mean residue at this position); higher = residue favoured
In short: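 Within 384-well plates, purified recombinant kinases phosphorylated biotinylated Tyr-centred peptide library mixtures over 90 min using 50 μM ATP spiked with γ-32P-ATP; each mixture fixed one residue at one position from −5 to +5. Streptavidin membrane capture, rinsing, phosphorimaging and ImageQuant gave the intensities. These were normalized per position to the sum of the 18 randomized residues (16 for the Ser/Thr-free library) and multiplied by that number.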

CSK, construct: Full length, human, sequence (P41240 whole entry, looked up): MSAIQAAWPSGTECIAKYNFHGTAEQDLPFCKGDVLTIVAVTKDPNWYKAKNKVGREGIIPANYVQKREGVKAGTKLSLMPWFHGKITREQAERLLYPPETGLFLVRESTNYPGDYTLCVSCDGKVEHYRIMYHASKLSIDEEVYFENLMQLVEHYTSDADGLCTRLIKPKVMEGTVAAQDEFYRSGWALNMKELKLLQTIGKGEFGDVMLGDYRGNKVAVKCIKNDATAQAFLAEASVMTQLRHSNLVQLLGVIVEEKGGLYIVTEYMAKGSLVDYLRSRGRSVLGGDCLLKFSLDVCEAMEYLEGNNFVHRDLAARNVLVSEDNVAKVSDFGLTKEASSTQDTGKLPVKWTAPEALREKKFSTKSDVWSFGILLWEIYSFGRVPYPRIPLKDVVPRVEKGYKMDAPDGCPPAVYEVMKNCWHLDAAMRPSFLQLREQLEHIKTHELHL

CSK, construct: Full length, human (from UniProt P41240)
relative phosphorylation (A fixed, at +1): 1.41
relative phosphorylation (A fixed, at +2): 0.875
relative phosphorylation (A fixed, at +3): 0.728
relative phosphorylation (A fixed, at +4): 0.981
relative phosphorylation (A fixed, at +5): 1.32
relative phosphorylation (A fixed, at -1): 0.815
relative phosphorylation (A fixed, at -2): 1.34
relative phosphorylation (A fixed, at -3): 0.852
relative phosphorylation (A fixed, at -4): 1.16
relative phosphorylation (A fixed, at -5): 1.05
relative phosphorylation (D fixed, at +1): 0.482
relative phosphorylation (D fixed, at +2): 1.38
relative phosphorylation (D fixed, at +3): 0.566
relative phosphorylation (D fixed, at +4): 1.08
relative phosphorylation (D fixed, at +5): 0.834
relative phosphorylation (D fixed, at -1): 0.976
relative phosphorylation (D fixed, at -2): 0.757
relative phosphorylation (D fixed, at -3): 1.29
relative phosphorylation (D fixed, at -4): 1.3
relative phosphorylation (D fixed, at -5): 1.07
relative phosphorylation (E fixed, at +1): 0.852
relative phosphorylation (E fixed, at +2): 1.46
relative phosphorylation (E fixed, at +3): 0.505
relative phosphorylation (E fixed, at +4): 1.36
relative phosphorylation (E fixed, at +5): 0.948
relative phosphorylation (E fixed, at -1): 1.78
relative phosphorylation (E fixed, at -2): 0.958
relative phosphorylation (E fixed, at -3): 2.98
relative phosphorylation (E fixed, at -4): 1.99
relative phosphorylation (E fixed, at -5): 1.16
relative phosphorylation (F fixed, at +1): 1.31
relative phosphorylation (F fixed, at +2): 1.36
relative phosphorylation (F fixed, at +3): 2.01
relative phosphorylation (F fixed, at +4): 1.1
relative phosphorylation (F fixed, at +5): 1.07
relative phosphorylation (F fixed, at -1): 1.38
relative phosphorylation (F fixed, at -2): 0.554
relative phosphorylation (F fixed, at -3): 0.79
relative phosphorylation (F fixed, at -4): 1.12
relative phosphorylation (F fixed, at -5): 1.37
relative phosphorylation (G fixed, at +1): 0.515
relative phosphorylation (G fixed, at +2): 0.485
relative phosphorylation (G fixed, at +3): 0.648
relative phosphorylation (G fixed, at +4): 1.17
relative phosphorylation (G fixed, at +5): 1.14
relative phosphorylation (G fixed, at -1): 0.362
relative phosphorylation (G fixed, at -2): 1.07
relative phosphorylation (G fixed, at -3): 0.915
relative phosphorylation (G fixed, at -4): 1.23
relative phosphorylation (G fixed, at -5): 1.15
relative phosphorylation (H fixed, at +1): 1.03
relative phosphorylation (H fixed, at +2): 0.914
relative phosphorylation (H fixed, at +3): 0.901
relative phosphorylation (H fixed, at +4): 1.22
relative phosphorylation (H fixed, at +5): 1.13
relative phosphorylation (H fixed, at -1): 1.2
relative phosphorylation (H fixed, at -2): 0.684
relative phosphorylation (H fixed, at -3): 0.839
relative phosphorylation (H fixed, at -4): 0.869
relative phosphorylation (H fixed, at -5): 0.994
relative phosphorylation (I fixed, at +1): 1.71
relative phosphorylation (I fixed, at +2): 1.07
relative phosphorylation (I fixed, at +3): 2.04
relative phosphorylation (I fixed, at +4): 0.759
relative phosphorylation (I fixed, at +5): 0.869
relative phosphorylation (I fixed, at -1): 2.44
relative phosphorylation (I fixed, at -2): 1.14
relative phosphorylation (I fixed, at -3): 0.774
relative phosphorylation (I fixed, at -4): 0.913
relative phosphorylation (I fixed, at -5): 1.05
relative phosphorylation (K fixed, at +1): 0.4
relative phosphorylation (K fixed, at +2): 0.606
relative phosphorylation (K fixed, at +3): 0.389
relative phosphorylation (K fixed, at +4): 0.815
relative phosphorylation (K fixed, at +5): 0.684
relative phosphorylation (K fixed, at -1): 0.472
relative phosphorylation (K fixed, at -2): 0.659
relative phosphorylation (K fixed, at -3): 0.867
relative phosphorylation (K fixed, at -4): 0.812
relative phosphorylation (K fixed, at -5): 0.748
relative phosphorylation (L fixed, at +1): 1.13
relative phosphorylation (L fixed, at +2): 1.08
relative phosphorylation (L fixed, at +3): 1.07
relative phosphorylation (L fixed, at +4): 0.746
relative phosphorylation (L fixed, at +5): 1.02
relative phosphorylation (L fixed, at -1): 1.24
relative phosphorylation (L fixed, at -2): 0.761
relative phosphorylation (L fixed, at -3): 0.763
relative phosphorylation (L fixed, at -4): 0.86
relative phosphorylation (L fixed, at -5): 1.07
relative phosphorylation (M fixed, at +1): 1.1
relative phosphorylation (M fixed, at +2): 0.839
relative phosphorylation (M fixed, at +3): 1.01
relative phosphorylation (M fixed, at +4): 1.06
relative phosphorylation (M fixed, at +5): 0.937
relative phosphorylation (M fixed, at -1): 0.9
relative phosphorylation (M fixed, at -2): 0.558
relative phosphorylation (M fixed, at -3): 0.832
relative phosphorylation (M fixed, at -4): 0.866
relative phosphorylation (M fixed, at -5): 1.01
relative phosphorylation (N fixed, at +1): 0.362
relative phosphorylation (N fixed, at +2): 1.06
relative phosphorylation (N fixed, at +3): 0.509
relative phosphorylation (N fixed, at +4): 0.875
relative phosphorylation (N fixed, at +5): 0.974
relative phosphorylation (N fixed, at -1): 0.679
relative phosphorylation (N fixed, at -2): 0.765
relative phosphorylation (N fixed, at -3): 0.901
relative phosphorylation (N fixed, at -4): 0.705
relative phosphorylation (N fixed, at -5): 0.845
relative phosphorylation (P fixed, at +1): 0.23
relative phosphorylation (P fixed, at +2): 0.59
relative phosphorylation (P fixed, at +3): 1.02
relative phosphorylation (P fixed, at +4): 1.08
relative phosphorylation (P fixed, at +5): 1.39
relative phosphorylation (P fixed, at -1): 0.395
relative phosphorylation (P fixed, at -2): 2.04
relative phosphorylation (P fixed, at -3): 0.944
relative phosphorylation (P fixed, at -4): 1.03
relative phosphorylation (P fixed, at -5): 1.01
relative phosphorylation (Q fixed, at +1): 0.988
relative phosphorylation (Q fixed, at +2): 0.791
relative phosphorylation (Q fixed, at +3): 0.607
relative phosphorylation (Q fixed, at +4): 0.992
relative phosphorylation (Q fixed, at +5): 0.954
relative phosphorylation (Q fixed, at -1): 0.691
relative phosphorylation (Q fixed, at -2): 0.952
relative phosphorylation (Q fixed, at -3): 0.772
relative phosphorylation (Q fixed, at -4): 1.07
relative phosphorylation (Q fixed, at -5): 0.839
relative phosphorylation (R fixed, at +1): 0.524
relative phosphorylation (R fixed, at +2): 0.757
relative phosphorylation (R fixed, at +3): 0.46
relative phosphorylation (R fixed, at +4): 0.859
relative phosphorylation (R fixed, at +5): 0.717
relative phosphorylation (R fixed, at -1): 0.409
relative phosphorylation (R fixed, at -2): 0.738
relative phosphorylation (R fixed, at -3): 0.976
relative phosphorylation (R fixed, at -4): 0.758
relative phosphorylation (R fixed, at -5): 0.735
relative phosphorylation (S fixed, at +1): 0.787
relative phosphorylation (S fixed, at +2): 0.978
relative phosphorylation (S fixed, at +3): 0.734
relative phosphorylation (S fixed, at +4): 0.868
relative phosphorylation (S fixed, at +5): 1.14
relative phosphorylation (S fixed, at -1): 0.533
relative phosphorylation (S fixed, at -2): 1.47
relative phosphorylation (S fixed, at -3): 0.958
relative phosphorylation (S fixed, at -4): 0.826
relative phosphorylation (S fixed, at -5): 0.943
relative phosphorylation (T fixed, at +1): 0.803
relative phosphorylation (T fixed, at +2): 0.829
relative phosphorylation (T fixed, at +3): 0.689
relative phosphorylation (T fixed, at +4): 0.879
relative phosphorylation (T fixed, at +5): 1.07
relative phosphorylation (T fixed, at -1): 0.926
relative phosphorylation (T fixed, at -2): 1.16
relative phosphorylation (T fixed, at -3): 0.918
relative phosphorylation (T fixed, at -4): 0.715
relative phosphorylation (T fixed, at -5): 0.897
relative phosphorylation (V fixed, at +1): 1.67
relative phosphorylation (V fixed, at +2): 1.03
relative phosphorylation (V fixed, at +3): 1.6
relative phosphorylation (V fixed, at +4): 0.831
relative phosphorylation (V fixed, at +5): 0.769
relative phosphorylation (V fixed, at -1): 1.65
relative phosphorylation (V fixed, at -2): 1.81
relative phosphorylation (V fixed, at -3): 0.769
relative phosphorylation (V fixed, at -4): 0.778
relative phosphorylation (V fixed, at -5): 0.831
relative phosphorylation (W fixed, at +1): 2.7
relative phosphorylation (W fixed, at +2): 1.9
relative phosphorylation (W fixed, at +3): 2.52
relative phosphorylation (W fixed, at +4): 1.34
relative phosphorylation (W fixed, at +5): 1.03
relative phosphorylation (W fixed, at -1): 1.16
relative phosphorylation (W fixed, at -2): 0.576
relative phosphorylation (W fixed, at -3): 0.859
relative phosphorylation (W fixed, at -4): 1.01
relative phosphorylation (W fixed, at -5): 1.22
relative phosphorylation (pThr fixed, at +1): 1.23
relative phosphorylation (pThr fixed, at +2): 1.87
relative phosphorylation (pThr fixed, at +3): 0.582
relative phosphorylation (pThr fixed, at +4): 1.12
relative phosphorylation (pThr fixed, at +5): 0.922
relative phosphorylation (pThr fixed, at -1): 1.02
relative phosphorylation (pThr fixed, at -2): 0.787
relative phosphorylation (pThr fixed, at -3): 1.35
relative phosphorylation (pThr fixed, at -4): 1.03
relative phosphorylation (pThr fixed, at -5): 1.02
relative phosphorylation (pTyr fixed, at +1): 3.21
relative phosphorylation (pTyr fixed, at +2): 7.03
relative phosphorylation (pTyr fixed, at +3): 1.05
relative phosphorylation (pTyr fixed, at +4): 1.36
relative phosphorylation (pTyr fixed, at +5): 1.64
relative phosphorylation (pTyr fixed, at -1): 4.72
relative phosphorylation (pTyr fixed, at -2): 1.71
relative phosphorylation (pTyr fixed, at -3): 2.14
relative phosphorylation (pTyr fixed, at -4): 2.83
relative phosphorylation (pTyr fixed, at -5): 1.74
